Experimental data as given in US20260258115A1 (MAPP BIOPHARMACEUTICAL, published 2026).

Tests used:
[1] = target: RSV F on RSV subtype A virus (RSV-A2) (Respiratory Syncytial Virus, subtype A, …, UniProt P03420 26-574); assay: cell-based or functional assay
[2] = target: RSV prefusion F (preF), subtype A (respiratory syncytial virus, subtype A, UniProt P03420 26-513); assay: BLI, IgG
[3] = target: T1, RSV postfusion F (postF), subtype A (respiratory syncytial virus, subtype A, UniProt P03420 26-513); assay: BLI, IgG
T1 construct: also called F ΔFP; Postfusion subtype A

[4] = target: RSV prefusion F (preF), subtype B (respiratory syncytial virus, subtype B); assay: BLI, IgG
[5] = target: T2, RSV postfusion F (postF), subtype B (respiratory syncytial virus, subtype B); assay: BLI, IgG
T2 construct: also called F ΔFP; Postfusion subtype B

B1: ADI-36670 (antibody, V domains shown)
VH: QVQLVQSGAEVKKPGSSVKVSCKASGGTFSTYTINWVRQAPGQGLEWMGRITPSLGVPLSAQKFQGRITISADKSTTTAYMELSSLGSEDTAVYYCASLNYYDTTDYYLGYSDSWGQGTLVTVSS
VL: DIVLTQTPATLSVSPGERATLSCRASHSVSNNLAWYQQKPGQAPRLLIYSASTRATGIPARFSGRGSGTEFTLTISSLQPEDFAVYYCQQYNNWPPEYTFGQGTKVDIK
[1]
  Neutralization - RSV A2 IC50 (pM): 141 pM
  neut IC50 (ug/ml) subtype A (wright): 0.008 µg/mL

B2: ADI-36674 (antibody, V domains shown)
VH: EVQLLESGGGLVKPGGSLRLSCAASGFKFRSYSMNWVRQAPGKGLEWVSSISSSSSYVDYAGSLKGRFTISRDNAENSLYLQMNSLRAEDTAMYYCARAGSVPVAGTYNDYWGQGTLVTVSS
VL: QSVLTQPPSVSGAPGQRVTISCTGSSSNIGAGYDVHWYQHLPGTAPKLLIHGNNNRPAGVPDRFSGSKSGTSASLVITGLQADDEADYYCQSYDRSLSVLFGGGTKVTVL
[1]
  Neutralization - RSV A2 IC50 (pM): 190 pM
  neut IC50 (ug/ml) subtype A (wright): 0.014 µg/mL

B3: ADI-21008 (antibody, V domains shown)
VH: QVQLQESGAGLLKPSETLSLTCTVYGGTFSGYHWNWIRQPPGKGLEWIGEINHRENTDYNASLESRVTISVDTSKRQFSLKMNSVTVADTAVYYCARGIQVLTNLGTEVRVHQFLDLWGRGTLVTVSS
VL: DIVLTQTPATLSLSPGERATLSCRASQSVSTYLAWYQQKPGQAPRLLIYDASNRAAGIPARFSGSGSGTDFTLTISSLEPEDFAVYYCQQRTNWLPLTFGGGTKVDIK
notes: also called Ab 259
[2]
  Kd: 5.68 nM
[3]
  Kd: 0.918 nM
[4]
  Kd: 4.14 nM
[5]
  Kd: 1.45 nM

B4: ADI-21011 (antibody, V domains shown)
VH: QVQLQESGPGLVKPSETLSLSCTASGDSISDYYWSWIRQPPGKGLEWIGFVSDTWGTNYSPSLTSRVAISLDTSRSQVSLRLRSVTAADTAVYYCVRTHLYDRGGYYLYYFDYWGQGTLVTVSS
VL: DIRMTQSPPSLSASVGDRVTITCRASQRIASYLNWYQQKPDTAPKLLIYAASNLQTGVPSRFSGSGSGTDFTLTISSLQPEDFATYYCQQSYSTPYTFGQGTKLEIK
[2]
  Kd: 1.41 nM
[3]
  Kd: 0.162 nM
[4]
  Kd: 0.982 nM
[5]
  Kd: 0.356 nM

B5: ADI-21012 (antibody, V domains shown)
VH: QVQLVQSGPAVVKPTQTLTLTCSFSGFSLSTSRMSVSWIRQPPGKALEWLARIDWDGDKYYSTSLKSRLTISKDTSKNQVVLTMTNMDPVDTATYYCARGSYYVSSGYYLNYFDYWGQGTLVTVSS
VL: DIRMTQSPSSLSASVGDRVTITCRTSQTIASYLNWYQQKPGKAPNLLIYAASILQTGVPSRFSGSGSGTDFTLTISSLQPEDFATYYCQQSYGTPQTFGQGTKVEIK
[2]
  Kd: 0.371 nM
[3]
  Kd: 0.214 nM
[4]
  Kd: 1.92 nM
[5]
  Kd: 0.28 nM

B6: ADI-21019 (antibody, V domains shown)
VH: EVQLLESGGGLVRPGGSLRLSCAVSGFTFSGNALTWIRRAPGKGLEWVSTIGDSGGGSYYADSVKGRFTISRDNSKSTLYLQMNSLTAEDTAVYYCARDPYGDYRDYYGIDVWGQGTTVTVSS
VL: EIVMTQSPLSLPVTPGEPASISCRSSQSLRHSNGYNYVDWYLQKPGQSPQLLIYLGSNRASGVPDRFRGSGSGTDFTLKISRVEAEDVGVYYCMQALQTPLTFGQGTKVEIK
[2]
  Kd: 0.182 nM
[3]
  Kd: 0.154 nM
[4]
  Kd: 0.962 nM
[5]
  Kd: 0.168 nM

B7: ADI-21022 (antibody, V domains shown)
VH: EVQLVETGPGLVKPSETLSLTCSVSGGSISSYYWSWLRQPPGKGLEWIGYIYNSGRTNYNPSLRSRVTISVDTSQNQFSLRLGSVTAADTAVYYCARGGAGDDLLRGSYRYLNFWGQGTLVTVSS
VL: QSVLTQPPSVSVAPGQTARITCGGNNIGSKSVHWYQQKPGQAPVLVVYDDTERPSGIPERISGSNSGNTATLTISRVEAGDEADYYCQVWDSSSDHPDLLFGGGTKLTVL
[2]
  binding result: no binding
[3]
  Kd: 0.256 nM
[4]
  Kd: 17.4 nM
[5]
  Kd: 0.357 nM

B8: ADI-21026 (antibody, V domains shown)
VH: QVQLVQSGPGLVKPSQTLSLTCTVSGVSISSGGFYWSWIRQHPGKGLEWIGHIYYSRSTYYNPSLKSRVTMSLNMSKNQFSLRLSSVTAADTAVYYCARERREWLHGELDYWGQGTTVTVSS
VL: DIQMTQSPDSLAVSLGEGATINCKSSQSVLDSSKNKNYLAWYQQRPGQPPKLLISWASTRESGVPDRFSGSGSGTDFTLTISSLQAEDVAVYSCQQYFSPPATFGQGTKLEIK
[2]
  Kd: 6.35 nM
[3]
  Kd: 0.945 nM
[4]
  Kd: 3.99 nM
[5]
  Kd: 1.43 nM

B9: ADI-21037 (antibody, V domains shown)
VH: QVQLVQSGGGVVQPGRSLRLSCAASGFPFSSYAMHWVRQAPGKGLEWVAVIWYPGGEKYSADSVTGRFTISRDNSKNTLYLQMSSLRVEDTAVYYCARRSVGAFDYWGQGTLVTVSS
VL: DIQMTQSPLSLPVTPGEPASISCRSSQSLLNSNGYNYLDWYLQKPGQSPQVLIYLGSHRASGVPDRFSGSGSGTDFTLRISRVEAEDVGVYYCMQAVQTPYTFGQGTKVEIK
[2]
  Kd: 1.95 nM
[3]
  Kd: 0.248 nM
[4]
  Kd: 4.81 nM
[5]
  Kd: 3.17 nM

B10: ADI-21039 (antibody, V domains shown)
VH: EVQLVQSGAEVKKPGASVKVSCKASGYTFISYYIHWVRQAPGQGLEWMGVINPSGGITDYAPKFQGRVSMTRDTSTRTVYLELSSLRSDDTAVYYCARDLCITTSCPRYYDYAWRSYRSEGYFDSWGQGTLVTVSS
VL: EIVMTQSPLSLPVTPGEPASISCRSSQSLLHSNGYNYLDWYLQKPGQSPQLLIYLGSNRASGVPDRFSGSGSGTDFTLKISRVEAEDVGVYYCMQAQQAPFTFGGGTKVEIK
[2]
  Kd: 1.71 nM
[3]
  Kd: 0.24 nM
[4]
  Kd: 12.7 nM
[5]
  Kd: 6.31 nM

B11: ADI-21042 (antibody, V domains shown)
VH: EVQLVESGPRLVKPSQTLSLTCNVSGVPVNTGGYYWSWIRRHPIKGLEWIGYIYYSGSTHYNPSLRGRATMSVDTSKNQFSLRLSSVTAADTAVYYCAKDTITVLRGVAKKGVFDPWGQGILVTVSS
VL: DIQMTQSPSTLSASVGDRVIITCRASQSISSWLAWYQYKPGKAPNLLIYKATTLDSGVPSRFSGSGSGTEFTLTISSLQPDDFATYYCQQYDSYPTFGQGTKVEIK
notes: also called Ab 290
[2]
  Kd: 2.96 nM
[3]
  Kd: 0.287 nM
[4]
  Kd: 1.18 nM
[5]
  Kd: 0.398 nM

B12: ADI-21043 (antibody, V domains shown)
VH: QVQLVQSGAEVKKPGASVKVSCKASGYTFTSYGITWVRQAPGQGLEWMGWISTYNGKTNYAQKFKGRVTMTTDTSTSTAYVELTSLRSDDTAVYYCAREFPTRIVDSFYMDVWGKGTTVTVSS
VL: SYELTQPPSVSVAPGQTARITCGGSNIGSETVHWYQQKPGQAPVLVVYGDSDRPSGIPERFSGSNSGNTATLTISRVEAGDEADYYCQVWDSRSDDFHVFGSGTKLTVL
[2]
  Kd: 0.111 nM
[3]
  Kd: 1.65 nM
[4]
  Kd: 0.154 nM
[5]
  Kd: 1.93 nM

B13: ADI-21046 (antibody, V domains shown)
VH: EVQLVESGAEAKKPGESLRISCTVSGYSFSKYWVGWVRQTPGKGLEWMGIIDPTDSDTRYSPSFQGQVTISVDNSINTAYLQWSSLKASDTAIYYCARRGQAKCVGNCPRDFMDVWGKGTTVTVSS
VL: SYVLTQPPSVSGAPGQRVTISCAGSSSNIGAGYEVHWYQQLPGTAPKLLIYANRNRPSGVPDRFSGSRSGTSASLAISGLQAEDEADYYCQSYDNNLSGSWVFGGGTKLTVL
[2]
  Kd: 1.66 nM
[3]
  Kd: 0.187 nM
[4]
  Kd: 0.694 nM
[5]
  Kd: 0.224 nM

B14: ADI-21047 (antibody, V domains shown)
VH: QVQLQQWGAGLLKPSETLSLTCAVYGGSFSGKYWSWIRQPPGKGLEWIGEFNHDGTTYYNPSLKSRVTISADTPKNQFSLTLHSVTAADTAVYYCARLTILSDWGQGTLVTVSS
VL: DIRMTQSPSSLSASVGDRVTITCQASQDISNYLHWYQQKPGKAPKLLIYDASNLETGVPSRFSGSGSGTDFTFTIHSLQPEDLATYYCQQYYDLPRTFGQGTKLEIK
[2]
  Kd: 2.11 nM
[3]
  Kd: 0.29 nM
[4]
  Kd: 0.756 nM
[5]
  Kd: 0.262 nM

B15: ADI-21054 (antibody, V domains shown)
VH: QVQLVESGGGVVQPGRSLRLSCAASGFSFSNYGMHWVRQAPGKGLEWVVGISFDGSYIFHGGSVTGRFNISRDNSKNTLYLQVNSVRAEDTAVYYCARDPQYYDDWSGYSGLLHYYLYMDVWGKGTTVTVSS
VL: DIQLTQSPSTLSASVGDRVTITCRASQSIGTSLAWYQQIPGKAPKLLIYRASSLESGVPSRFSGGGSGTQFTLTISSLQPDDFATYYCQQYNNYSPTFGQGTKLEIK
[2]
  Kd: 0.185 nM
[3]
  Kd: 0.372 nM
[4]
  Kd: 0.139 nM
[5]
  Kd: 0.306 nM

B16: ADI-21055 (antibody, V domains shown)
VH: EVQLVESGGGVVQPGRSLRLSCVGSGFTFSRYGMQWVRQAPGKGLEWAAVIWNDGSNEHYADSVKGRFTISRDNSKNTMYLQMNSLRAEDTALYYCAREGEYSSSWSHWSYLDLWGRGTLVTVSS
VL: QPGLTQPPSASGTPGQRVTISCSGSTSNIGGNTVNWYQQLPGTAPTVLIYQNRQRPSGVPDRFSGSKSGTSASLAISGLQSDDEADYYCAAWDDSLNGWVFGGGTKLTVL
[2]
  Kd: 1.1 nM
[3]
  Kd: 0.185 nM
[4]
  Kd: 2.98 nM
[5]
  Kd: 4.35 nM

B17: ADI-21061 (antibody, V domains shown)
VH: QVQLVQSGAEVKKPGSSVKVSCKASGGTFSNYPISWVRQAPGHGLEWMGRVVPTVGLANYAQNLQGRVTITADTSTNTVYMELRSLRSEDTGLYYCARRAVVDTYAFDIWGQGTLVTVSS
VL: QSALIQPASVSGFPGQSITISCTGASSDVGGYNFVSWYQQHPGKAPKLIIYEVTKRPSGVSNRFSGSESGNTASLTISGLQAEDEADYYCSSFRYTSSIVYVFGSGTKVTVL
[2]
  Kd: 1.1 nM
[3]
  Kd: 0.142 nM
[4]
  Kd: 2.76 nM
[5]
  Kd: 2.48 nM

B18: ADI-21062 (antibody, V domains shown)
VH: EVQLLESGGGLVKPGGSLRLSCAASGFTFSDYDMIWVRQAPGKGLEWVSSISRGSDYIYYADSLKGRFTISRDNARNSVTLQMNSLRAGDTALYFCARAELLDSGGYYLYYFDHWGQGTLVTVSS
VL: DIRMTQSPSSLSASVGDRVTITCRASQIIASYVNWYQKKPGKAPKVLIYAASRLQNGVPSRFSGSGSGTEFTLTISSLQPEDFATYYCQQSYSTSFTFGQGTKVDIK
notes: also called Ab 310
[2]
  Kd: 1.24 nM
[3]
  Kd: 0.236 nM
[4]
  Kd: 0.827 nM
[5]
  Kd: 0.417 nM
